Laboratory results reported in patent publication US6878861B2, “Acyl coenzyme A thioesterases” (Washington State University Research Foundation, priority 2000, dated 2005).
Entries after “also recorded” stand apart in the source; their conditions may differ.

Assay: Acyl-CoA thioesterase assay with radiolabeled acyl-CoA, lysate of cells over-expressing ACH1
Type: biochemical
Settings: lysate of transfected E. coli cells
Protocol: In these assays, radiolabeled acyl-CoA is used as a substrate in which the [^14C] label is on the fatty acid portion of the molecule, and the enzyme activity is measured by the amount of labeled free fatty acid released by the action of the enzyme. Typically, the acyl group is palmitoyl-CoA (16:0 Co-A) or oleoyl-CoA (18:1-CoA). Because the reaction pH must be below 9, as a pH above this level causes base-catalyzed hydrolysis of the substrate, in most experiments the enzyme activity is measured between pH 7 and 9. The reactions are conducted at room temperature. The reaction volume is generally kept from about 32 μl to 100 μl. Although the reaction times may vary, typical incubation times are 10-15 minutes, which is sufficient for even small amounts of protein.
The protein solution to be assayed, which can be purified protein over-expressed in E. coli or unpurified protein in a plant extract or a plant subfraction, such as purified chloroplasts, is brought to the desired volume with buffer (20 mM Tris-HCl, pH 7.2, 200 mM NaCl and 1 mM EDTA). […] An 850 μl aliquot of the hexane phase is added to 3 ml BCS, and the amount of radioactivity determined in a scintillation counter.
The level of acyl-CoA thioesterase activity is determined by the amount of radioactivity that is found in the hexane phase. […]

B1: ACH1: Arabidopsis acyl-CoA thioesterase ACH1 (SEQ ID NO:5), expressed as fusion protein with a 6 histidine tag; assayed as cell lysate (protein, listed as Arabidopsis thaliana)
chain: MNTESVVEFLGNVTLLQRLPSSSLKRISEVVVFKGYDRGDYVVRENQNVDGVYFLLQGQAQVLRSAGEENYQEFPLKRYDFFGHGIFGDVYSADVVAVTELTCLLLMSDHRALLEIKSVSDSDKERCLVEDILYLEPLDLNVYRGFTPPNAPTYGKVYGGQLVGQALAAASKTVETMKIVHNFHCYFLLVGDINIPIIYDVNRLRDGNNFATRSVDARQKGKTIFTLFASFQKKQQGFIHQESTMPHTPAPETLLPREEMLERLVTEPLLPRDYRNQVATEISVPFPIDIRFCEPNRSTKQNKSPPRLKYWFRAKGKLSDDDQALHRCVVAFASDLIFATISLNPHRREGMSVAALSLDHSMWFHRPVRADDWLLFVIVSPTATESRGFATGKMFNRKGELVVSLTQEAVLREAVTIKPSFGAKL
  acyl-CoA thioesterase activity of cell lysate compared with control plasmid cells: no increased acyl-CoA thioesterase activity was observed in cell lysates; also recorded: no greater than the level of activity in cells transfected with a control plasmid
